Molecular target: IFN-γ receptor (UniProt P15260)
Experiment: cell-based or functional assay

IFN-γ receptor, sequence (P15260 18-489 limits assumed, chain 1 of 2): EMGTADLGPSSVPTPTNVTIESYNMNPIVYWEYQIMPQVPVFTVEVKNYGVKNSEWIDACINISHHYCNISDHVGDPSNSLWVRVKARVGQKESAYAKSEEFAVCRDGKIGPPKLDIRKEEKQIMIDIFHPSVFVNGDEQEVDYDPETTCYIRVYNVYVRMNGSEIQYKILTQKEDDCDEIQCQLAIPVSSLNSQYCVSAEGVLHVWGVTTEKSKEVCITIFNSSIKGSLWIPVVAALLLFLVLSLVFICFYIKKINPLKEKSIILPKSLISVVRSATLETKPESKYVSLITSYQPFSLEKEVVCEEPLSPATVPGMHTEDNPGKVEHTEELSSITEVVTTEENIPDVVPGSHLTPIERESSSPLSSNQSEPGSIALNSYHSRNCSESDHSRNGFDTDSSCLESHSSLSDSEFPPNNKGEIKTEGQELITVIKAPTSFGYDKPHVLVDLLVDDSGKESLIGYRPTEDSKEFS
IFN-γ receptor, sequence (P38484 22-337 limits assumed, chain 2 of 2, further chain): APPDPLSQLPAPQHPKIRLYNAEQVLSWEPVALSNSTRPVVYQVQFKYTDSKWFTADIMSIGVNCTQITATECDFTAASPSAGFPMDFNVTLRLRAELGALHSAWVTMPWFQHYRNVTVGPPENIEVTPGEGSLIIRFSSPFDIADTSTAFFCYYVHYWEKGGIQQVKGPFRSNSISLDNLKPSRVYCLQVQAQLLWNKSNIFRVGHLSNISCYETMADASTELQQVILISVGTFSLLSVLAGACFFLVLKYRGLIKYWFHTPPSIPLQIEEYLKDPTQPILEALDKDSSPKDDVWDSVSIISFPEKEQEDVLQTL

Substance: recombinant IFN-γ (free state) (from UniProt P01579 24-166) (ligand)
- PD-L1 expression induced on HEK-CD4-IFN-γ cells, MFI of anti-PD-L1 APC staining: 67 MFI
- PD-L1 expression induced on HEK-IFN-γ cells, MFI of anti-PD-L1 APC staining: 75 MFI

From US20230167164A1
